# Columns and labels:
# HLA-B*83:01 = assay: IEDB peptide-MHC binding, purified MHC/competitive/fluorescence; filed as Kd, often an IC50 or EC50 that approximates it; ≥ and ≤ were set here for values at or beyond the usual limits of such assays; conditions: source organism: Mycobacterium tuberculosis variant bovis BCG str. Pasteur 1173P2
# HLA-B*15:42 = assay: as above; conditions: source organism: Mycobacterium tuberculosis variant bovis BCG str. Pasteur 1173P2
# HLA-B*45:06 = assay: as above; conditions: source organism: Mycobacterium tuberculosis variant bovis BCG str. Pasteur 1173P2
# HLA-A*02:03 [1] = assay: IEDB peptide-MHC binding, purified MHC/direct/fluorescence; filed as Kd, often an IC50 or EC50 that approximates it; ≥ and ≤ were set here for values at or beyond the usual limits of such assays; conditions: source organism: Mycobacterium tuberculosis str. Haarlem
# HLA-A*69:01 [2] = assay: as above
# HLA-B*15:01 [3] = assay: as above
# HLA-A*02:01 [4] = assay: as above
# HLA-A*11:01 = assay: as above
# HLA-A*01:01 = assay: as above
# HLA-B*27:05 = assay: as above
# HLA-A*31:01 = assay: as above; conditions: source organism: Pseudomonas aeruginosa
# HLA-A*03:01 [5] = assay: as above
# HLA-B*07:02 = assay: as above
# HLA-B*40:01 = assay: as above
# HLA-B*08:01 [6] = assay: as above
# HLA-A*26:01 [7] = assay: as above
# HLA-B*58:01 = assay: as above
# HLA-A*30:01 = assay: as above
# HLA-B*51:01 = assay: IEDB peptide-MHC binding, purified MHC/competitive/fluorescence; filed as Kd, often an IC50 or EC50 that approximates it; ≥ and ≤ were set here for values at or beyond the usual limits of such assays; conditions: source organism: Vibrio antiquarius
# HLA-A*02:12 = assay: as above; conditions: source organism: Vibrio antiquarius
# HLA-A*02:16 = assay: as above
# HLA-B*15:01 [8] = assay: as above; conditions: source organism: Vibrio antiquarius
# HLA-B*39:01 = assay: as above
# HLA-A*02:19 = assay: as above; conditions: source organism: Vibrio antiquarius
# HLA-A*02:01 [9] = assay: as above
# HLA-A*02:03 [10] = assay: as above; conditions: source organism: Vibrio antiquarius
# HLA-B*18:01 = assay: as above; conditions: source organism: Vibrio antiquarius
# HLA-A*68:02 = assay: as above; conditions: source organism: Vibrio antiquarius
# HLA-A*03:01 [11] = assay: as above; conditions: source organism: Vibrio antiquarius
# HLA-A*69:01 [12] = assay: as above; conditions: source organism: Vibrio antiquarius
# HLA-B*57:01 [13] = assay: as above; conditions: source organism: Vibrio antiquarius
# HLA-A*24:03 [14] = assay: as above; conditions: source organism: Vibrio antiquarius
# HLA-A*26:01 [15] = assay: as above; conditions: source organism: Vibrio antiquarius
# HLA-B*27:03 = assay: as above; conditions: source organism: Vibrio antiquarius
# HLA-B*46:01 [16] = assay: as above; conditions: source organism: Vibrio antiquarius
# HLA-B*44:02 = assay: IEDB peptide-MHC binding, purified MHC/direct/fluorescence; filed as Kd, often an IC50 or EC50 that approximates it; ≥ and ≤ were set here for values at or beyond the usual limits of such assays
# HLA-A*24:03 [17] = assay: as above
# HLA-B*15:09 = assay: as above; conditions: source organism: Yellow fever virus
# HLA-B*57:01 [18] = assay: as above; conditions: source organism: Yellow fever virus
# HLA-B*46:01 [19] = assay: as above; conditions: source organism: Yellow fever virus
# HLA-B*08:02 = assay: as above; conditions: source organism: Escherichia coli O157:H7 str. EC869
# HLA-B*08:01 [20] = assay: IEDB peptide-MHC binding, purified MHC/competitive/fluorescence; filed as Kd, often an IC50 or EC50 that approximates it; ≥ and ≤ were set here for values at or beyond the usual limits of such assays; conditions: source organism: Salmonella enterica subsp. enterica serovar Typhi
# [21] = source organism: Pseudomonas aeruginosa
# [22] = source organism: Vibrio antiquarius
# [23] = source organism: Toxoplasma gondii ME49
# [24] = source organism: Yersinia enterocolitica
# [25] = source organism: Yellow fever virus
# [26] = source organism: Pseudomonas aeruginosa UCBPP-PA14
# [27] = source organism: Salmonella enterica subsp. enterica serovar Typhi
sequence,measurement,setting,value
AIYDTMQYV,Kd,HLA-B*83:01,≥ 5 µM
same,Kd,HLA-B*15:42,≥ 5 µM
same,Kd,HLA-B*45:06,≥ 5 µM
same,Kd,HLA-A*02:03 [1],0.003 µM
same,Kd,HLA-A*69:01 [2]; source organism: Mycobacterium tuberculosis,0.006 µM
DLPPAIAAE,Kd,HLA-B*15:01 [3]; [21],≥ 10 µM
same,Kd,HLA-A*02:01 [4]; [21],≥ 20 µM
same,Kd,HLA-A*11:01; [21],≥ 20 µM
same,Kd,HLA-A*01:01; [21],≥ 20 µM
same,Kd,HLA-B*27:05; [21],≥ 20 µM
same,Kd,HLA-A*31:01,≥ 20 µM
same,Kd,HLA-A*03:01 [5]; [21],≥ 20 µM
same,Kd,HLA-B*07:02; [21],≥ 20 µM
same,Kd,HLA-A*69:01 [2]; [21],≥ 20 µM
same,Kd,HLA-B*40:01; [21],≥ 20 µM
same,Kd,HLA-B*08:01 [6]; [21],≥ 20 µM
same,Kd,HLA-A*26:01 [7]; [21],1.95 µM
same,Kd,HLA-B*58:01; [21],≥ 20 µM
same,Kd,HLA-A*30:01; [21],12.6 µM
FDLFGITLY,Kd,HLA-B*51:01,≥ 20 µM
same,Kd,HLA-A*02:12,≥ 20 µM
same,Kd,HLA-A*02:16; [22],≥ 20 µM
same,Kd,HLA-B*15:01 [8],≥ 20 µM
same,Kd,HLA-B*39:01; [22],≥ 20 µM
same,Kd,HLA-A*02:19,≥ 20 µM
same,Kd,HLA-A*02:01 [9]; [22],≥ 20 µM
same,Kd,HLA-A*02:03 [10],≥ 20 µM
same,Kd,HLA-B*18:01,0.279 µM
same,Kd,HLA-A*68:02,≥ 20 µM
same,Kd,HLA-A*03:01 [11],≥ 20 µM
same,Kd,HLA-A*69:01 [12],≥ 20 µM
same,Kd,HLA-B*57:01 [13],≥ 20 µM
same,Kd,HLA-A*24:03 [14],≥ 20 µM
same,Kd,HLA-A*26:01 [15],≥ 20 µM
same,Kd,HLA-B*27:03,≥ 20 µM
same,Kd,HLA-B*46:01 [16],≥ 20 µM
FGGGPWWEV,Kd,HLA-A*02:16; [23],0.0084 µM
same,Kd,HLA-A*02:01 [9]; [23],0.0122 µM
GYGRVNAGK,Kd,HLA-B*15:01 [3]; [24],≥ 20 µM
same,Kd,HLA-A*02:01 [4]; [24],≥ 20 µM
same,Kd,HLA-A*11:01; [24],6.54 µM
same,Kd,HLA-A*01:01; [24],≥ 20 µM
same,Kd,HLA-B*27:05; [24],≥ 20 µM
same,Kd,HLA-B*44:02; [24],≥ 20 µM
same,Kd,HLA-A*03:01 [5]; [24],≥ 20 µM
same,Kd,HLA-B*07:02; [24],≥ 20 µM
same,Kd,HLA-A*69:01 [2]; [24],≥ 20 µM
same,Kd,HLA-B*40:01; [24],≥ 20 µM
same,Kd,HLA-A*24:03 [17]; [24],10.3 µM
same,Kd,HLA-B*08:01 [6]; [24],≥ 20 µM
same,Kd,HLA-A*26:01 [7]; [24],≥ 20 µM
same,Kd,HLA-B*58:01; [24],≥ 20 µM
same,Kd,HLA-A*30:01; [24],9.1 µM
IQYVIRAQL,Kd,HLA-B*15:09,≥ 20 µM
same,Kd,HLA-A*01:01; [25],≥ 20 µM
same,Kd,HLA-B*27:05; [25],≥ 20 µM
same,Kd,HLA-B*44:02; [25],≥ 20 µM
same,Kd,HLA-A*03:01 [5]; [25],≥ 20 µM
same,Kd,HLA-B*57:01 [18],≥ 20 µM
same,Kd,HLA-B*58:01; [25],≥ 20 µM
same,Kd,HLA-B*46:01 [19],≥ 20 µM
RMKMRRPHL,Kd,HLA-B*08:02,2.36 µM
RTGTRLLGR,Kd,HLA-B*15:01 [3]; [26],≥ 20 µM
same,Kd,HLA-A*02:01 [4]; [26],≥ 20 µM
same,Kd,HLA-A*11:01; [21],0.197 µM
same,Kd,HLA-A*01:01; [26],≥ 20 µM
same,Kd,HLA-B*27:05; [26],≥ 20 µM
same,Kd,HLA-A*31:01,0.052 µM
same,Kd,HLA-A*03:01 [5]; [21],0.252 µM
same,Kd,HLA-B*07:02; [26],≥ 20 µM
same,Kd,HLA-A*69:01 [2]; [26],≥ 20 µM
same,Kd,HLA-B*40:01; [26],≥ 20 µM
same,Kd,HLA-A*24:03 [17]; [26],≥ 20 µM
same,Kd,HLA-B*08:01 [6]; [26],≥ 20 µM
same,Kd,HLA-A*26:01 [7]; [26],≥ 20 µM
same,Kd,HLA-B*58:01; [26],≥ 20 µM
same,Kd,HLA-A*30:01; [21],12 µM
WLMKYPYQL,Kd,HLA-B*39:01; [27],≤ 0.001 µM
same,Kd,HLA-A*02:01 [9]; [27],0.0002 µM
same,Kd,HLA-B*08:01 [20],0.0886 µM
